Literature values in paper PMC10449480.

Molecular target: tryptophanyl-tRNA synthetase (Geobacillus stearothermophilus) (UniProt P00953)

Kd: 5 nM
Substance: tryptophanyl-tRNA synthetase (from UniProt P00953)
